Consider 3 substances from patent EP2954934A1 (3B Pharmaceuticals GmbH, dated 2015).

The target of experiment [1] is NTR1 on HT29 or NTR1-expressing HEK293 cells (UniProt P30989). In words: cell-based or functional assay.
Experiment [2] addresses human neurotensin receptor 1 (NTR1) prepared from CHO cells recombinantly expressing the human receptor (human) (UniProt P30989). In words: radioligand displacement, 125I-(Tyr3-neurotensin) on human NTR1 from CHO cells.

Sequence of NTR1 on HT29 or NTR1-expressing HEK293 cells (P30989 whole entry): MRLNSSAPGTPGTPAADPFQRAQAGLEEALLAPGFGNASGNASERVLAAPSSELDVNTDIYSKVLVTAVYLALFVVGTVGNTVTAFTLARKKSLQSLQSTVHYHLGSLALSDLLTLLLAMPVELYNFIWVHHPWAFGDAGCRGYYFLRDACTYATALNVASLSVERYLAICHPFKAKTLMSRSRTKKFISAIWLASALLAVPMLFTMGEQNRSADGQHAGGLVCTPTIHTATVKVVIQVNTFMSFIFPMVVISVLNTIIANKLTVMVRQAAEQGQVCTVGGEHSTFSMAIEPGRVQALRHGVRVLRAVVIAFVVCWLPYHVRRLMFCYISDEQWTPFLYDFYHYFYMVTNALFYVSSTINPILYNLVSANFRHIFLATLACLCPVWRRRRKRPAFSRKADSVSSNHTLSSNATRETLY
Sequence of human neurotensin receptor 1 (NTR1) prepared from CHO cells recombinantly expressing the human receptor (human) (P30989 whole entry): as above

On to “1206-Glutar-Ttds3-Asn-Ala-Val-Pro-Asn-Leu-Arg-Gly-Asp-Leu-Gln-Val-Leu-Ala-Gln-Lys-Val-Ala-Arg-Thr-GA (peptide)”, for which, in experiment [1], the Agonistic Effect EC50 [nM] (functional Ca2+ mobilisation assay) was more than 50000 nM and the Antagonistic Effect IC50 [nM] (functional Ca2+ mobilisation assay) worked out at 38 nM. Besides, the IC50 in experiment [2] came out at 9.9 nM.

Turning to “1206-Glutar-Ttds-Lys(1206-Glutar-Ttds)-Ttds-Asn-Ala-Val-Pro-Asn-Leu-Arg-Gly-Asp-Leu-Gln-Val-Leu-Ala- (peptide)”, in experiment [1], the Agonistic Effect EC50 [nM] (functional Ca2+ mobilisation assay) is more than 50000 nM and the Antagonistic Effect IC50 [nM] (functional Ca2+ mobilisation assay) is 12 nM. Also, the IC50 in experiment [2] was found to be 7.5 nM.

On to “1206-Glutar-Ttds-Lys(DOTA)-Ttds-GABA-Asn-Ala-Val-Pro-Asn-Leu-Arg-Gly-Asp-Leu-Gln-Val-Leu-Ala-Gln-Lys (peptide)”, for which, in experiment [1], the Agonistic Effect EC50 [nM] (functional Ca2+ mobilisation assay) was more than 50000 nM and the Antagonistic Effect IC50 [nM] (functional Ca2+ mobilisation assay) is 18 nM. In experiment [2], the IC50 amounted to 10 nM.

In general, IC50 refers to the concentration that gives 50% inhibition.
